Data on 29 sequences can be found in the supplement of paper PMC9170038.

The data set relates to MS2 coat protein. Briefly: apparent KD of MS2 coat protein; designed switch direction (-1 OFF switch, 1 ON switch): 1; higher = weaker reporter binding. The method, boiled down: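 Transcription of designed RNA switches on Illumina chips was done by stalled E. coli RNA polymerase. SNAP-549-labelled MS2 coat protein was then titrated in doubling steps from 0.7 or 1.5 nM to 3 µM, with steps of 0.8–1.5 h at the lowest and 10–20 min at the highest concentration. The per-design median over clusters of curve-fitted normalised fluorescence is reported as apparent KD.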

Setting [1] is: input ligand: microRNA oligo, concentration not stated.
Where [2] appears, read: Eterna round: R95, input ligand: FMN 200 uM.
The mark [3] stands for this setting: Eterna round: R95, input ligand: microRNA oligo, concentration not stated.
The mark [4] stands for this setting: Eterna round: R95, input ligand: none.

For “UAUGAAUUGCAAGGAUAUUGAUAACAUGAGGAUCACCCAUGUAAUUGAUCGAGUUAGAUCAGUUACAAGAAGGUGCUAUUGAUU [JR_SSNG2_Sub036] (Eterna round: R96, puzzle: Same State NG 2)”, the “apparent KD of MS2 coat protein” value runs as follows: (input ligand: FMN 200 uM) 534 nM; under setting [1], 24.5 nM; (input ligand: none) 90.7 nM.
On to “UAUUCAUUCAGAGGAUAUUGUUUAUCUCUAUUUCAAGAAGGCUGAUUUUACUACUUACUUAUGAAACAUGAGGAUCACCCAUGU [JR_SSNG1_Sub020] (Eterna round: R96, puzzle: Same State NG 1)”, for which the “apparent KD of MS2 coat protein” value under setting [1] came to 18.7 nM.
In the case of “UAUUUAAUCAUAGGAUAUAGUGUGUAAUUUGGACUAGAAGGAUGUAACAUGAGGAUCACCCAUGUGGUAAAUGGGAUACAUUCC [JR_SSNG1_Sub099] (Eterna round: R96, puzzle: Same State NG 1)”, the “apparent KD of MS2 coat protein” value under setting [1] was found to be 91.9 nM.
For “UCAGUCAUGUAAGGAUAUGCAGCCGAAACGGCUGCAGAAGGUACUAUAAUUACAUGAGGAUCACCCAUGUUAUAAAUAAAAUAU [Mat - Same State NG 1 - JL mod - D66] (Eterna round: R96, puzzle: Same State NG 1)”, the “apparent KD of MS2 coat protein” value stood at 23.1 nM (input ligand: FMN 200 uM), 43 nM under setting [1] and 62.6 nM (input ligand: none).
As for “UCGGGCUCUGCUCGUCUUGAGUUGCUCCCACAUGAGGAUCACCCAUGUAGUGUGCCUAUCAGCGCGCGGGUGACUUU [Riesonso] (puzzle: Sensor for hsa-mir-208a)”, the “apparent KD of MS2 coat protein” value is, setting by setting: under setting [2], 328 nM; under setting [3], 133 nM; under setting [4], 350 nM.
Take “UCUCGGGUCGUAGGAUAUGUAGGAUAUGUACAUGAGGAUCACCCAUGUCUACCAGAGACAGAAGGACAGAAGGACGAGCCGAGC [pwkr ssNG2 2FMN 1F5s.7] (Eterna round: R96, puzzle: Same State NG 2)”: the “apparent KD of MS2 coat protein” value reads like this: (input ligand: FMN 200 uM) 19.5 nM; under setting [1], 19 nM; (input ligand: none) 36.3 nM.
On to “UCUUGGUUUUUGCUCGUUUUUUGUGUUGAACAUGAGGAUCACCCAUGUAUUGUACAAUCCGGUUUGAUGAUGGUCCA [JMF 47] (Eterna round: R96, puzzle: Sensor for hsa-mir-208a)”, for which the “apparent KD of MS2 coat protein” value reads like this: (input ligand: FMN 200 uM) 125 nM; under setting [1], 55.5 nM; (input ligand: none) 115 nM.
Consider “UCUUGGUUUUUGCUCGUUUUUUGUGUUGAACAUGAGGAUCACCCAUGUAUUGUACAAUCCGGUUUGAUGAUGGUCCA [JMF 47] (puzzle: Sensor for hsa-mir-208a)”, for which the “apparent KD of MS2 coat protein” value was 81.7 nM under setting [2], 58.3 nM under setting [3] and 92.3 nM under setting [4].
Take “UGAACCUUCACAGGAUAUCAUGCGAAAAUUGCGUGAGAAGGGUGGAUGUGGUGUUCAUAGUUGCACAUGAGGAUCACCCAUGUA [SameState NG1 #51] (Eterna round: R96, puzzle: Same State NG 1)”: the “apparent KD of MS2 coat protein” value amounted to 115 nM (input ligand: FMN 200 uM), 124 nM under setting [1] and 237 nM (input ligand: none).
For “UGAAUAGUGAUAGGAUAUACAUGAGGAAUCCUCGUAGAAGGAUCAUAACAUGAGGAUCACCCAUGUAGCCGUCCGUAGACGGCA [Mat - Same State NG 1 - JL mod - D56] (Eterna round: R96, puzzle: Same State NG 1)”, in that order: 336 nM, 64 nM and 117 nM.
Take “UGAAUGGUGAUAGGAUAUACAUGAGGAAUCCUCGUAGAAGGAUCACGACAUGAGGAUCACCCAUGUAGCCGUCCGUAGACGGCU [salish99_SSNG1_r04_003] (Eterna round: R96, puzzle: Same State NG 1)”: the “apparent KD of MS2 coat protein” value worked out at 192 nM (input ligand: FMN 200 uM), 75.9 nM under setting [1] and 255 nM (input ligand: none).
“UGAUGCCCAUCAGGAUAUGGGCCCAUGAGGAUCACCCAUGUAAAGUAGGUCCAACAGGGCCAAGUCUAGAAGGGAUGGCGGGCA [malcolm 80 ssNG2 F5+F7.1] (Eterna round: R96, puzzle: Same State NG 2)”: the “apparent KD of MS2 coat protein” value by setting is: (input ligand: FMN 200 uM) 163 nM; under setting [1], 59.1 nM; (input ligand: none) 190 nM.
Consider “UGGAUCUAGGCUUGCCUGGGUCCAUGUUGACAUGAGGAUCACCCAUGUGUAUUUUAUAAGCUUUUUGUUUGUCAACA [JL A Humble Attempt mod 7] (puzzle: Sensor for hsa-mir-208a)”, for which the “apparent KD of MS2 coat protein” value is 37 nM under setting [2] and 37.6 nM under setting [4].
For “UGGAUGGUGAUAGGAUAUACAUGAGGAAUCCUCGUAGAAGGAUCACGACAUGAGGAUCACCCAUGUAGCCGUCCGUAGACGGCU [salish99_SSNG1_r04_004] (Eterna round: R96, puzzle: Same State NG 1)”, the “apparent KD of MS2 coat protein” value is, setting by setting: (input ligand: FMN 200 uM) 478 nM; under setting [1], 122 nM; (input ligand: none) 711 nM.
As for “UGGCCAGCCUGUGCUGGGCUUUAGCAUGUACAUGAGGAUCACCCAUGUCGUGUACAUGCUUUUUGCUCGUCUUUAAA [Photon Torp-06] (puzzle: Sensor for hsa-mir-208a)”, the “apparent KD of MS2 coat protein” value was found to be 35.8 nM under setting [2], 23.1 nM under setting [3] and 125 nM under setting [4].
In the case of “UGGCUGGUGCUAGGAUAUGCAUGAGGCCUCCUCGUAGAAGGAGCGCGACAUGAGGAUCACCCAUGUAGCCGUCCGUAGACGGCU [salish99_SSNG1_r04_012] (Eterna round: R96, puzzle: Same State NG 1)”, the “apparent KD of MS2 coat protein” value is, setting by setting: (input ligand: FMN 200 uM) 165 nM; under setting [1], 100 nM; (input ligand: none) 193 nM.
For “UGGUACAUGAGAGGAUAUGGGUAGAUGACAUGAGGAUCACCCAUGUUAAAGUCCGAAAGGACAUCCUAGAAGGCUCAUGUACCU [MOD of JL SSNG1 3.99] (Eterna round: R96, puzzle: Same State NG 2)”, the “apparent KD of MS2 coat protein” value came out at 11 nM (input ligand: FMN 200 uM), 27 nM under setting [1] and 27.7 nM (input ligand: none).
For “UGGUACAUGCGAGGAUAUGGGUUGAUGACAUGAGGAUCACCCAUGUUAAAUAUGCCGAGAGGCACCUAGAAGGCGCAUGUACCU [MOD2 of JL SSNG1 3.99] (Eterna round: R96, puzzle: Same State NG 2)”, the “apparent KD of MS2 coat protein” value (input ligand: FMN 200 uM) was 10.4 nM, the “apparent KD of MS2 coat protein” value under setting [1] worked out at 23 nM and the “apparent KD of MS2 coat protein” value (input ligand: none) amounted to 36.9 nM.
For “UGGUACAUGGGAGGAUAUCUCAUGGUGACAUGAGGAUCACCCAUGUAGUUGGAGCCGAAAGGCUGAGAGAAGGCCCAUGUACCU [JL SSNG1 3.75] (Eterna round: R96, puzzle: Same State NG 2)”, the “apparent KD of MS2 coat protein” value (input ligand: FMN 200 uM) was 59.4 nM, the “apparent KD of MS2 coat protein” value under setting [1] was 98 nM and the “apparent KD of MS2 coat protein” value (input ligand: none) came out at 78.5 nM.
As for “UGUACAUGAGGAUCACCCAUGUCUAGACAUGUUAAUAUAAUGUAGGAUAUAUAAUAUUUAAAUUAAUAGAAGGACAAUUUUUUU [JMF's solution 3] (Eterna round: R96, puzzle: Same State NG 3)”, the “apparent KD of MS2 coat protein” value by setting is: (input ligand: FMN 200 uM) 147 nM; under setting [1], 115 nM; (input ligand: none) 234 nM.
With “UGUUAGUAGUGAGGAUAUACAUACACCUUACAUGAGGAUCACCCAUGUUUUAAGAUUGAUAGAUAGUAGAAGGCACAUGAUGAU [JR_SSNG2_Sub042] (Eterna round: R96, puzzle: Same State NG 2)”, under setting [1], the “apparent KD of MS2 coat protein” value amounted to 38.2 nM.
On to “UGUUGUAUUACAGGAUAUCUAGUAUUUAUAUUUAGAGAAGGGUAUUCACAUGAGGAUCACCCAUGUAUAUACGAGGAAGUUGUG [JMF's solution 41] (Eterna round: R96, puzzle: Same State NG 1)”, for which, under setting [1], the “apparent KD of MS2 coat protein” value is 36.9 nM.
With “UGUUGUAUUACAGGAUAUCUAGUAUUUUUUUUUAGAGAAGGGUAUUCACAUGAGGAUCACCCAUGUAUAUACGAGGAAGUUGUG [JMF's solution 46] (Eterna round: R96, puzzle: Same State NG 1)”, under setting [1], the “apparent KD of MS2 coat protein” value was 46.1 nM.
As for “UGUUGUAUUACAGGAUAUCUAUGAUUAUUAUUUAGAGAAGGGUAUUCACAUGAGGAUCACCCAUGUAUAUACGAGGAAGUUGUG [JMF's solution 59] (Eterna round: R96, puzzle: Same State NG 1)”, the “apparent KD of MS2 coat protein” value under setting [1] stood at 31.2 nM.
The same measure, in the same setting: for “UGUUGUAUUACAGGAUAUCUAUGAUUUUGAUUUAGAGAAGGGUAUUCACAUGAGGAUCACCCAUGUAUAUACGAGGAAGUUGUG [JMF's solution 64] (Eterna round: R96, puzzle: Same State NG 1)” the value was 40.4 nM.
For the sequence “UGUUGUAUUACAGGAUAUCUAUUGGUUUUAUUUAGAGAAGGGUAUUCACAUGAGGAUCACCCAUGUAUAUACGAGGAAGUUGUG [JMF's solution 72] (Eterna round: R96, puzzle: Same State NG 1)”, the “apparent KD of MS2 coat protein” value under setting [1] turned out to be 43.3 nM.
On to “UGUUGUAUUACAGGAUAUCUAUUGUUUUCAUUUAGAGAAGGGUAUUCACAUGAGGAUCACCCAUGUAUAUACGAGGAAGUUGUG [JMF's solution 78] (Eterna round: R96, puzzle: Same State NG 1)”, for which the “apparent KD of MS2 coat protein” value (input ligand: FMN 200 uM) came to 42.1 nM, the “apparent KD of MS2 coat protein” value under setting [1] came out at 33.1 nM and the “apparent KD of MS2 coat protein” value (input ligand: none) was found to be 39.9 nM.
For the sequence “UGUUGUUAAUUAGGAUAUGGGCACAUGAGGAUCACCCAUGUAUUGUCGAUGCUAUGUGGACACGUCUAGAAGGAAUGGCUAACA [SameState NG2 #90] (Eterna round: R96, puzzle: Same State NG 2)”, the “apparent KD of MS2 coat protein” value stood at 72.9 nM (input ligand: FMN 200 uM), 88 nM under setting [1] and 112 nM (input ligand: none).
Consider “UUAAGCCACGGGCAGGAUAUGUGUUAAAAUACAUGAGGAUCACCCAUGUGCAGGUGUAACACCUGACAGAAGGGCCAAUCGCGGC [Soondi - 2] (puzzle: Same State 2)”, for which the “apparent KD of MS2 coat protein” value came out at 23.7 nM under setting [2], 43 nM under setting [3] and 56.4 nM under setting [4].
